Here are results for two molecules from US12383631 (BRIGHT PEAK THERAPEUTICS, dated 2025).

B2: human IL-18BP-His (other)
chain: TPVSQTTTAATASVRSTKDPCPSQPPVFPAAKQCPALEVTWPEVEVPLNGTLSLSCVACSRFPNFSILYWLGNGSFIEHLPGRLWEGSTSRERGSTGTQLCKALVLEQLTPALHSTNFSCVLVDPEQVVQRHVVLAQLWAGLRATLPPTQEALPSSHSSPQQQG
notes: also called His-tagged human IL-18BP; not shown: His tag

The target in experiment [1] is T1, IL-18 receptor (IL-18Rα/IL-18Rβ) on cells (HEK-Blue IL18R reporter cells, NK-92, KG-1) (human, UniProt Q13478 19-541; O95256 20-599).
T1 sequence (looked up) 1: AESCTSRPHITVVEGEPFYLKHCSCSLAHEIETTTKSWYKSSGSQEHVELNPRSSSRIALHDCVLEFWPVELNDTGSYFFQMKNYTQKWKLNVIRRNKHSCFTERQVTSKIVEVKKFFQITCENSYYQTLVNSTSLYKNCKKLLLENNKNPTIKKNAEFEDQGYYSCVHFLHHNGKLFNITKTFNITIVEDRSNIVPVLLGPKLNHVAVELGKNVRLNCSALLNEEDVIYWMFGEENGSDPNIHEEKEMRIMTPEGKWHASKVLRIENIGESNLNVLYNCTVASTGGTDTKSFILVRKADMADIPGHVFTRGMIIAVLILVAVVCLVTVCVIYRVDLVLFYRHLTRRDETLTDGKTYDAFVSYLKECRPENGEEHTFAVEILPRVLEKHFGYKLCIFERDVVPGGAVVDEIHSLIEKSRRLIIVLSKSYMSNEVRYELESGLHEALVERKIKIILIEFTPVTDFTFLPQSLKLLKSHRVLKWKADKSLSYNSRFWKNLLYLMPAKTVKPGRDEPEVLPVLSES
T1 sequence (looked up) 2: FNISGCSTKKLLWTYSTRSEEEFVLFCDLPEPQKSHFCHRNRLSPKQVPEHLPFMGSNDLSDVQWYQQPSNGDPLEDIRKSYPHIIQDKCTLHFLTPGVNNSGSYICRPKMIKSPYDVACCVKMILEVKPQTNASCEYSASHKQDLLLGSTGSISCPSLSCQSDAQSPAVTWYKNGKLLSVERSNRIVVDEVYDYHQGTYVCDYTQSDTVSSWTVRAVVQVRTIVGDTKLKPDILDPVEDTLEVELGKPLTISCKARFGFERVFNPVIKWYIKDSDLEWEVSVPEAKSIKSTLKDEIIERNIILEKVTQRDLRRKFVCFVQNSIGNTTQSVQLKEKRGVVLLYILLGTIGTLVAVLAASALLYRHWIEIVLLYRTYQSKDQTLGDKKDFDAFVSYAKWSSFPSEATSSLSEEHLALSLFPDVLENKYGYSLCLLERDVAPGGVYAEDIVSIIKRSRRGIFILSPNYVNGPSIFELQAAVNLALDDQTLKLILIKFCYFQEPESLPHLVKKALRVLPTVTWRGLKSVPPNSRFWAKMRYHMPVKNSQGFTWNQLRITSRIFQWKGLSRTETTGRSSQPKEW
Description: cell-based or functional assay.

The target of experiment [2] is T1, IL-18 receptor (IL-18Rα/IL-18Rβ) on …. Description: cell-based or functional assay. This is another data set of the same source.
The target is the same in experiment [3]. Description: cell-based or functional assay. This is another data set of the same source.
Experiment [4] addresses B2. Description: AlphaLISA of free IL-18BP after incubation with IL-18BP-His. On the procedure:
(§1) Under subdued light, 12.5 µl of pre-mixed Donor beads were added, followed by a short centrifugation step at 150 g, and incubated for 30 minutes at 20° C. under shaking at 750 rpm with no light. AlphaLisa signal was then measured on an Enspire plate reader (Perkin Elmer) using 680 and 615 nm as excitation and emission wavelengths respectively.
A general note: Bead proximity is the source of the signal in Alpha formats.

Experiment [5] addresses T2, Composition B (Atezolizumab/Tecentriq conjugated to IL-18 polypeptide of SEQ ID NO: 30) (human, UniProt P0DOX5 2-449 = IgG part; P0DOX7 1-214; Q14116 37-193, chemical linker to the antibody; site not stated for this composition; chemical linker to IL-18; site not stated for this composition).
T2 construct: immunocytokine
Described as above. The protocol: as §1

The Kd is the free concentration of one partner at which half of the binding sites on the other are occupied at equilibrium, for simple one-to-one binding. The low end stands for tighter binding, the high end for weaker binding.

B1: IL-18 polypeptide of SEQ ID NO: 30 (E6K, V11I, C38A, K53A, T63A, C76A, C127A) (ligand)
chain: YFGKLKSKLSIIRNLNDQVLFIDQGNRPLFEDMTDSDARDNAPRTIFIISMYADSQPRGMAVAISVKCEKISTLSAENKIISFKEMNPPDNIKDTKSDIIFFQRSVPGHDNKMQFESSSYEGYFLAAEKERDLFKLILKKEDELGDRSIMFTVQNED
notes: also called C086
Turning to B1, the “EC50, IFNγ secretion, NK92 cells” value in experiment [1] was determined as 2 pM. Further, in experiment [2], the “EC50, IFNγ secretion, PD-1 positive KG-1 cells” value amounted to 8 pM and the “EC50, IFNγ secretion, parental KG-1 cells” value amounted to 12 pM. Besides, in experiment [3], the “EC50, HEK-Blue IL18R reporter cells” value worked out at 0.034 pM. In experiment [4], this molecule came in with a Kd of 24600 pM.

In experiment [5], B2 showed a Kd of 6380 pM.
